According to article doi:10.1101/2023.03.28.534377:

How the values were obtained:
Test in all cases: pull-down
[1] = molecular target: His-ImuB-L378A (M. smegmatis) (M. smegmatis)
[2] = molecular target: His-ImuB-L378A+V383A (M. smegmatis) (M. smegmatis)
[3] = molecular target: His-ImuB-V383A (M. smegmatis) (M. smegmatis)

With “Strep-VFP-tagged ImuA’ (M. smegmatis) (natural protein)” the fold less pulled down than by His-ImuB [1] was 1.5 fold, the fold less pulled down than by His-ImuB [2] was 3 fold and the fold less pulled down than by His-ImuB [3] was 1.5 fold.
